From publication PMC13486704 (2026)

B1: HCMV protease (protein)
chain: MTMDEQQSQAVAPVYVGGFLARYDQSPDEAELLLPRDVVEHWLHAQGQGQPSLSVALPLNINHDDTAVVGHVAAMQSVRDGLFCLGCVTSPRFLEIVRRASEKSELVSRGPVSPLQPDKVVEFLSGSYAGLSLSSRRCDDVEAATSLSGSETTPFKHVALCSVGRRRGTLAVYGRDPEWVTQRFPDLTAADRDGLRAQWQRCGSTAVDASGDPFRSDSYGLLGNSVDALYIRERLPKLRYDKQLVGVTERESYVKA

Experiments:
[1] = target: HCMV protease (Human cytomegalovirus) (UniProt P16753); settings: cited from earlier work
[2] = target: the molecule itself

Molecule | Kd [1] [µM] | Kd [2] [µM]
HCMV protease (from UniProt P16753) | 5.8 | –
B1 | – | ~70
